Experimental data from the supplement of paper PMC9732359.
± gives the uncertainty stated by the source.

Test: protein stability index of a GFP-peptide fusion (yeast GPS) (PSI 1-4); higher = more stable; sorted into four equal gates, so the index is relative within each strain
In short: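 Plasmids isolated from each sorting gate were PCR-amplified and Illumina-sequenced, and barcodes assigned the reads to strains. The gates, four of equal size, were set by GFP/Cherry fluorescence ratio on mid-log cultures in leucine-free medium. These cultures were yeast carrying a pooled library of tiled 17-residue yeast protein peptides fused downstream of GFP on a plasmid that also expresses Cherry. The protein stability index is the sum of every gate's read frequency times its gate number.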

## VAFDNINTHIETLAYNS [SNF2]
doa10∆
  protein stability index: 2.56 ± 0.1
pdr5∆
  protein stability index: 2.85 ± 0.074
san1∆
  protein stability index: 2.5 ± 0.063
ubr1∆
  protein stability index: 1.99 ± 0.058

## MTAVRRSTRIRTKSQVI [IRR1]
doa10∆
  protein stability index: 2.9 ± 0.15
pdr5∆
  protein stability index: 3.23 ± 0.081
san1∆
  protein stability index: 3.42 ± 0.077
ubr1∆
  protein stability index: 3.38 ± 0.1

## EHFSHFGHIMEDFQVLR [YDL088C/ASM4]
doa10∆
  protein stability index: 3.03 ± 0.063
pdr5∆
  protein stability index: 2.92 ± 0.045
san1∆
  protein stability index: 2.54 ± 0.059
ubr1∆
  protein stability index: 2.44 ± 0.045

## RVLITQRHIAVGKQIVN [RPS9A]
doa10∆
  protein stability index: 2.22 ± 0.072
pdr5∆
  protein stability index: 1.92 ± 0.087
san1∆
  protein stability index: 2.83 ± 0.12
ubr1∆
  protein stability index: 2.59 ± 0.15

## EGTSISVHLIECYKQLF [YCS4]
doa10∆
  protein stability index: 3.46 ± 0.14
pdr5∆
  protein stability index: 3.39 ± 0.12
san1∆
  protein stability index: 3.42 ± 0.14
ubr1∆
  protein stability index: 3.3 ± 0.063

## GEPEAGNKALEDEEEFS [RPC34]
doa10∆
  protein stability index: 3.18 ± 0.13
pdr5∆
  protein stability index: 3.26 ± 0.26

## SARGIETRPAQVILPMS [FAS2]
doa10∆
  protein stability index: 3.06 ± 0.08
pdr5∆
  protein stability index: 2.93 ± 0.073
san1∆
  protein stability index: 3 ± 0.068
ubr1∆
  protein stability index: 3.16 ± 0.082

## MAHFKEYQVIGRRLPTE [RPL20A]
doa10∆
  protein stability index: 2.21 ± 0.071
pdr5∆
  protein stability index: 2.07 ± 0.061
san1∆
  protein stability index: 1.4 ± 0.1
ubr1∆
  protein stability index: 2.4 ± 0.047

## KIMQSISNKDVIFKIRD [SRB4]
doa10∆
  protein stability index: 3.34 ± 0.1
pdr5∆
  protein stability index: 2.91 ± 0.15
san1∆
  protein stability index: 3.22 ± 0.11
ubr1∆
  protein stability index: 2.72 ± 0.12

## QTIMKMGPLSNIAQMIP [SRP54]
doa10∆
  protein stability index: 2.6 ± 0.081
pdr5∆
  protein stability index: 2.67 ± 0.068
san1∆
  protein stability index: 2.58 ± 0.08
ubr1∆
  protein stability index: 2.99 ± 0.07

## LVEKVYARFKNDFFPGE [ITC1]
doa10∆
  protein stability index: 3.47 ± 0.091
pdr5∆
  protein stability index: 3.36 ± 0.1
san1∆
  protein stability index: 3.05 ± 0.058
ubr1∆
  protein stability index: 3.25 ± 0.077

## ESSFIEIDDTEAEVTAE [BRR2]
doa10∆
  protein stability index: 3.01 ± 0.068
pdr5∆
  protein stability index: 3.1 ± 0.088
san1∆
  protein stability index: 2.98 ± 0.11
ubr1∆
  protein stability index: 3.06 ± 0.052

## IDHINEESWEKVVEFAI [SCL1]
doa10∆
  protein stability index: 2.78 ± 0.07
pdr5∆
  protein stability index: 3.08 ± 0.082
san1∆
  protein stability index: 3.03 ± 0.068
ubr1∆
  protein stability index: 2.91 ± 0.06

## LLNILITYGIIKVPTYI [SRB8]
doa10∆
  protein stability index: 1.57 ± 0.083
pdr5∆
  protein stability index: 1.52 ± 0.09
ubr1∆
  protein stability index: 1.03 ± 0.047

## AETTFLQDVIALSIADD [RPC53]
doa10∆
  protein stability index: 2.24 ± 0.07
pdr5∆
  protein stability index: 1.8 ± 0.065
san1∆
  protein stability index: 1.97 ± 0.12
ubr1∆
  protein stability index: 2.18 ± 0.07

## ASSNFPFLNETKPGVYY [RPC82]
doa10∆
  protein stability index: 3.09 ± 0.12
pdr5∆
  protein stability index: 2.43 ± 0.09
san1∆
  protein stability index: 2.73 ± 0.091
ubr1∆
  protein stability index: 2.99 ± 0.072

## HLILDKLNQKYDIVKFL [GRR1]
doa10∆
  protein stability index: 1.83 ± 0.041
pdr5∆
  protein stability index: 1.66 ± 0.035
san1∆
  protein stability index: 1.3 ± 0.1
ubr1∆
  protein stability index: 1.81 ± 0.03

## ILQILDQDELVQPPLDK [SWP82]
doa10∆
  protein stability index: 2.58 ± 0.068
pdr5∆
  protein stability index: 2.68 ± 0.11
san1∆
  protein stability index: 2.62 ± 0.074
ubr1∆
  protein stability index: 2.48 ± 0.11

## FHKQQAHFWKPVLNLDK [RPL28]
doa10∆
  protein stability index: 2.93 ± 0.067
pdr5∆
  protein stability index: 3.19 ± 0.056
san1∆
  protein stability index: 2.76 ± 0.057
ubr1∆
  protein stability index: 2.93 ± 0.052

## TIEHAADITDGNNTELT [YCG1]
doa10∆
  protein stability index: 3.29 ± 0.081
pdr5∆
  protein stability index: 3.46 ± 0.082
san1∆
  protein stability index: 3.33 ± 0.078
ubr1∆
  protein stability index: 3.31 ± 0.069

## SLSIEENIPVALCKNRK [POP1]
doa10∆
  protein stability index: 2.76 ± 0.07
pdr5∆
  protein stability index: 2.98 ± 0.1
san1∆
  protein stability index: 2.75 ± 0.18
ubr1∆
  protein stability index: 2.95 ± 0.1

## QVKKPRKQRVKKKTKKE [SWI1]
doa10∆
  protein stability index: 3.13 ± 0.24
pdr5∆
  protein stability index: 3.37 ± 0.13
san1∆
  protein stability index: 3.5 ± 0.12
ubr1∆
  protein stability index: 3.38 ± 0.1

## FLGALKYLPHAILKLLE [PRP8]
doa10∆
  protein stability index: 2.12 ± 0.09
pdr5∆
  protein stability index: 1.82 ± 0.061
san1∆
  protein stability index: 2.55 ± 0.085
ubr1∆
  protein stability index: 2.16 ± 0.039

## SLNFIPITASTSRVFAK [YML103C/NUP188]
pdr5∆
  protein stability index: 1.58 ± 0.28
san1∆
  protein stability index: 2.06 ± 0.26

## DEVTIRRTVGLKKDDYQ [SMC3]
doa10∆
  protein stability index: 2.66 ± 0.12
pdr5∆
  protein stability index: 2.53 ± 0.099
san1∆
  protein stability index: 2.32 ± 0.13
ubr1∆
  protein stability index: 2.35 ± 0.071

## RNNLPAKTFGASVRIFL [RPL33A]
doa10∆
  protein stability index: 2.81 ± 0.052
pdr5∆
  protein stability index: 2.76 ± 0.054
san1∆
  protein stability index: 2.84 ± 0.053
ubr1∆
  protein stability index: 2.68 ± 0.052

## IGDTIADGPTMREITET [RPO21]
doa10∆
  protein stability index: 3.48 ± 0.11
pdr5∆
  protein stability index: 3.52 ± 0.092
san1∆
  protein stability index: 3.52 ± 0.045
ubr1∆
  protein stability index: 3.39 ± 0.059
